Test results: US12365905B2, “Host cells and methods for reducing isoprenoid precursors and isoprenoids by geranylgeranyl reductase” (The Regents of the University of California, priority 2018, dated 2025)

What was measured:
Format in all cases: biochemical
[1] = In vitro GGR reduction of geranylgeranyl pyrophosphate, products detected by LC-MS-TOF; design: key to GGPP (C20) reduction: +: activity detected; ++: activity higher than for other GGRs
Experimental: (§1) Validation of enzymatic substrate reduction was determined by incubating all assays in triplicate for each respective substrate and putative GGR for 1 hour at 37° C. All assays were performed at pH 7.4 in 100 mM sodium phosphate buffer containing 30-150 μM enzyme, 200 µM FAD (Sigma-Aldrich), and 65 mM sodium dithionite (Sigma-Aldrich). Standard assays for alcohol reduction were incubated with 100 μM enzyme and 500 μM (E,E)-farnesol (Alfa-Aesar) or (E,E,E)-geranylgeraniol (Sigma-Aldrich); pyrophosphate assays were performed at 100 μM FPP or GGPP (Sigma-Aldrich). Alcohol-based assays were quenched by liquid extraction using a 3:1 (v:v) LC-grade ethyl acetate solution containing 100 μM dodecanol as a GC internal standard (Sigma-Aldrich). The organic layer was extracted and stored at −20° C. until analysis by GC-MS. Pyrophosphate assays were similarly quenched using LC-grade n-butanol (Sigma-Aldrich) 1:1 (v:v) and centrifuged at 15000×g for 2 minutes. The n-butanol layer was dried for 45 minutes at ambient temperature using a Labconco speedvac, reconstituted in 25 µL of a 62:38 (v:v) acetonitrile/50 mM ammonium carbonate solution, and stored at −20° C. until further analysis by LC-MS-TOF [33]. Characterization of enzymatic hydrolysis of isoprenoid pyrophosphate substrates by SaGGR and PfGGR was performed by quenching the enzyme reactions at 0, 2, 5, 10, 20, 40, and 60 minutes of incubation.
The separation of FPP, GGPP, and their reduced forms was conducted on a ZIC-pHILIC column (150 mm length, 2.1 mm internal diameter, and 5 μm particle size, Merck) using an Agilent Technologies 1200 Series Rapid Resolution high performance liquid chromatography (HPLC) system. Solvents for HPLC were purchased from HoneyWell and were of HPLC grade or higher. The mobile phases used for this analysis were A) 50 mM ammonium carbonate (Fluka, 30-33% NH3 basis) in water and B) acetonitrile. Analytes were eluted isocratically with a mobile phase composition of 62% B at a flow rate of 0.2 mL/min. The total run time of the method was 6.5 min. The temperature of the sample tray was maintained at 6° C. using an Agilent FC/ALS Thermostat. […]
(§2) Data acquisition and processing were performed by the Agilent Technologies MassHunter software package. Product formation was determined using extracted ion chromatogram abundances (±0.02 Da) for each molecule's [M-H]^− mass (Table 4). […] Relative reductase reactivity among GGRs was determined by measuring the fractional abundance of singly-, doubly-, or triply-reduced products to the total ion abundance present for intact and hydrolyzed moieties. Integrated areas for hydrolyzed monophosphate products were assumed to have the same ionization intensities as their pyrophosphate counterparts, as determined by their standard curves measured from 0-120 μM (FIG. 15).

[2] = GGR reduction of geranyl pyrophosphate; design: key to GPP (C10) reduction: +: activity detected; ++: activity higher than for other GGRs
[3] = In vitro GGR reduction of geranylgeraniol, products analysed by GC-MS; design: key to Geranylgeraniol (C20) reduction: +: activity detected; ++: activity higher than for other GGRs
Experimental: as §1
(§3) Product identification and quantification of farnesol and hydrofarnesol derivatives were modified from previous detection methods. All GC-MS analyses were determined using an Agilent 6890 gas chromatography instrument coupled to an Agilent 5973 mass selective detector. 1 µL of extracted samples were injected in splitless mode onto an Agilent CycloSil-B column, with helium used as a carrier gas flowing at 1.0 mL/min. Following injection, the oven was held at 50° C. for 30 seconds, then increased to 175° C. at 35° C./min. Farnesol and hydrofarnesols were resolved by increasing the temperature 4° C./min up to 200° C., then increased to 300° C. at a rate of 35° C./min where it was held for 1.5 minutes. Geranylgeraniol and its hydrogenated derivatives were analyzed using the same injection method. After injection, the oven was held at 50° C. for 30 seconds then increased to 235° C. at 35° C./min. Hydrogeranylgeraniols were separated by increasing the oven temperature 4° C./min to 250° C., then ramped to 300° C. at a rate of 35° C./min where it was held for 1.5 minutes.
(§4) The EI-MS detection was initiated after a solvent delay of 5.0 minutes. Detection and classification of hydrofarnesols was performed in scan mode at 9.8 scans/sec ranging from 50-250 m/z in positive ion mode. For geranylgeraniol, the same scan parameters were implemented except for the mass range, which was expanded to 50-300 m/z in positive ion mode. The electron multiplier voltage was set to a gain factor of 1, with the MS ion source and quadrupole set to 230° C. and 150° C., respectively.
(§5) Total ion chromatograms (TIC) were integrated using Agilent Technologies Masshunter software, version 6. Product formation was determined from the TIC area for C15 or C20 alcohol products eluting at each respective retention time. Absolute product concentrations were determined from standard curves (0-200 μM) of either farnesol or geranylgeraniol assuming the TIC area of each reduced product ionizes with an equivalent efficiency to that of the unreduced substrate (FIG. 10). Subsequently, enzyme turnover numbers for isoprenoid reduction were calculated as the total number of nanomoles of prenyl units reduced per milligram of enzyme in 1 hr.

[4] = In vitro GGR reduction of farnesol, products analysed by GC-MS; design: key to Farnesol (C15) reduction / Farnesol (C15)-full reduction: +: activity detected; ++: activity higher than for other GGRs
Experimental: as §1, with “triplicate for each respective substrate and putative GGR for 1 hour at 37° C. All assays were performed at pH 7.4 in 100 mM sodium phosphate” left out
as §3, §4, §5

[5] = In vitro GGR reduction of farnesyl pyrophosphate, products detected by LC-MS-TOF; design: key to FPP (C15) reduction: +: activity detected; ++: activity higher than for other GGRs
Experimental: as §1, with “[…] […]” for “Validation of enzymatic substrate reduction was determined by incubating all assays in triplicate for each respective substrate and putative GGR for 1 hour at 37° C. All assays were performed at pH 7.4 in 100 mM sodium phosphate buffer containing 30-150 μM enzyme, 200 µM FAD (Sigma-Aldrich), and 65 mM sodium dithionite (Sigma-Aldrich).”
The separation of FPP, GGPP, and their reduced forms was conducted on a ZIC-pHILIC column (150 mm length, 2.1 mm internal diameter, and 5 μm particle size, Merck) using an Agilent Technologies 1200 Series Rapid Resolution high performance liquid chromatography (HPLC) system. Solvents for HPLC were purchased from HoneyWell and were of HPLC grade or higher. The mobile phases used for this analysis were A) 50 mM ammonium carbonate (Fluka, 30-33% NH3 basis) in water and B) acetonitrile. Analytes were eluted isocratically with a mobile phase composition of 62% B at a flow rate of 0.2 mL/min. The total run time of the method was 6.5 min. The temperature of the sample tray was maintained at 6° C. using an Agilent FC/ALS Thermostat. The column compartment was set to 40° C. A sample injection volume of 2 μL was used throughout.
The HPLC system was coupled to an Agilent Technologies 6210 time-of-flight mass spectrometer (LC-TOF-MS) by a ⅓post-column split. Contact between both instrument set-ups was established using a LAN card in order to trigger the MS into operation upon the initiation of a run cycle from the MassHunter workstation (Agilent Technologies). Electrospray ionization (ESI) was conducted in the negative ion mode and a capillary voltage of −3500 V was utilized. MS experiments were carried out in full scan mode, at 0.86 spectra/second for the detection of [M-H]^− ions. The instrument was tuned for a range of 50-1700 m/z. Prior to LC-TOF-MS analysis, the TOF-MS was calibrated via an ESI-L low concentration tuning mix (Agilent Technologies).
as §2

[6] = GGR-mediated hydrolysis of prenyl pyrophosphates to monophosphates, time course by LC-MS-TOF; settings: standard assay as a function of time, 0-60 minutes
Experimental: Validation of enzymatic substrate reduction was determined by incubating all assays in triplicate for each respective substrate and putative GGR for 1 hour at 37° C. All assays were performed at pH 7.4 in 100 mM sodium phosphate buffer containing 30-150 μM enzyme, 200 µM FAD (Sigma-Aldrich), and 65 mM sodium dithionite (Sigma-Aldrich). Standard assays for alcohol reduction were incubated with 100 μM enzyme and 500 μM (E,E)-farnesol (Alfa-Aesar) or (E,E,E)-geranylgeraniol (Sigma-Aldrich); pyrophosphate assays were performed at 100 μM FPP or GGPP (Sigma-Aldrich). […]
as §2

[7] = GGR reduction of geraniol; settings: FIG. 1A legend, conditions not stated
[8] = FIG. 1A legend, conditions not stated
[9] = 1 hr, 37° C., pH 7.4, error in brackets

B1: Ma1-GGR: geranylgeranyl reductase from Methanosarcina acetivorans #1, InterPro Q8TQQ6 (protein, UniProt Q8TQQ6 1-407, looked up)
Digeranylgeranylglycerophospho …: MKDIYDVLVIGAGPAGSIAAKTAAEKGLDVLLIEKRQEIGDPVRCAEGVNKEYLKKHVEIDNSWICADLKGSRIYSPNGTKVEMAEEISGGEVGYVLERKIFDRALAEHAAKAGAEVRVKTRATGLIIEDDFVKGARLMNLGKEYEVRAKIVIGADGVESKVGRWAGIDTSLKPIDIETCAQYLIAGADIDPEYCEFYIGNEIAPGGYVWIFPKGEGKANVGVGILGNRTGKFKPRPVDYLNNFVEKKFPNAKIVEMVFGGVPVSGSIEKTSVNGLMLVGDAARQSDPITGGGILNAMDAGKIAGEAAYEAISSGDVSLEKLEEVYEKRWRETTGHDIDMSLIVKNCFINLKDEDLDSLADSLKEVKFESMRLFDLLQALFKANKKLLWDLRVLFKDAAKEVMKNRT
GGPP (C20) reduction [1]: + | Reduction of GGPP (in words) ([1]; standard assay conditions): found to reduce GGPP

B2: Sa-GGR: geranylgeranyl reductase from Sulfolobus acidocaldarius, InterPro M1I414, wild type (protein, listed as Sulfolobus acidocaldarius)
chain: MKELKYDVLIIGGGFAGSSAAYQLSRRGLKILLVDSKPWNRIGDKPCGDAVSKAHFDKLGMPYPKGEELENKINGIKLYSPDMQTVWTVNGEGFELNAPLYNQRVLKEAQDRGVEIWDLTTAMKPIFEDGYVKGAVLFNRRTNEELTVYSKVVVEATGYSRSFRSKLPPELPITEDLDDKDADVAYREVLLTKEDIEDHDYLRIFIDQETSPGGYWWYFPKGKNKVNVGLGIQGGMGYPSIHEYYKKYLDKYAPDVDKSKLLVKGGALVPTRRPLYTMAWNGIIVIGDSGFTVNPVHGGGKGSAMISGYCAAKAILSAFETGDFSASGLWDMNICYVNEYGAKQASLDIFRRFLQKLSNDDINYGMKKKIIKEEDLLEASEKGDLHLSVADKAMRVISGLGRPSLLFKLKAVAESMKKIKELYLNYPRSPSSLGSWRREVDNVLTEFNKSLS
GPP (C10) reduction [2]: + | Product of GPP reduction [2, 8]: H2-GPP | Geranylgeraniol (C20) reduction [3]: + | Reduced products formed from geranylgeraniol ([3]; 1 hour 37° C., pH 7.4): H2-, H4-, H6- and H8-geranylgeraniol | Specific activity of enzymatic GGR reduction on geranylgeraniol (GGOH) [3, 9]: 50 (10) nmol terpene units reduced mg^−1 enzyme hr^−1 | Product of complete reduction of geranylgeraniol [3, 8]: H8-GGOH | Enzymatic reduction of geranylgeraniol (in words) ([3]; standard assay, 1 hr, 37° C., pH 7.4): enzymatically reduce geranylgeraniol | Specific activity toward GGOH ([3]; standard assay, stated as lower bound): at least 50±10 nmol terpenoids reduced per milligram of enzyme per hour | GGPP (C20) reduction [1]: + | Product of GGPP reduction [1, 8]: H6-GGPP | Farnesol (C15) reduction [4]: + | Farnesol (C15)-full reduction [4]: + | Formation of fully reduced farnesol ([4]; 50° C. and pH 5.5): generated a modest amount of H6-FOH | Reduced products formed from farnesol ([4]; 1 hour 37° C., pH 7.4): H2- and H4-farnesol | Reduction of FOH to H2-FOH or H4-FOH (in words) ([4]; 1 hr incubation under standard assay conditions): found to reduce FOH | Specific activity of enzymatic GGR reduction on farnesol (FOH) [4, 9]: 8 (1) nmol terpene units reduced mg^−1 enzyme hr^−1 | Product of complete reduction of farnesol [4, 8]: H6-FOH | FPP (C15) reduction [5]: + | Product of FPP reduction [5, 8]: H4-FPP | Preferential / final product of FPP reduction ([5]; SaGGR variants, pH 5.5, 50° C., kinetic time course): H4-FPP | FPP consumption ([5]; after two hours of incubation at pH 5.5, 50° C.): fully consume FPP | Reduction of FPP (in words) ([5]; standard assay conditions): could reduce FPP | Rate of first-order substrate hydrolysis, comparison [6]: occurs more quickly in SaGGR than for PfGGR | Product of complete reduction of geraniol [7]: H4-GOH
